This is an account of results in publication PMC9061721 (Nature Communications, 2022).

Experiment [1] deals with recombinant human insulin (Homo sapiens, UniProt P01308). The experiment can be described thus: ELISA. Conditions: both partners purified. On the technique in general: An ELISA detects its analyte on a solid surface through an enzyme-linked reagent.
The target of experiment [2] is T1, H3 peptide 36-57HA2 (wild type) (Influenza A virus A/Hong Kong/1/1968 …, UniProt Q91MA7, strain).
T1 construct: source: synthetic peptide
The experiment in a line: ELISA. The note with it: both partners purified.

Chain of recombinant human insulin (P01308 whole entry, looked up): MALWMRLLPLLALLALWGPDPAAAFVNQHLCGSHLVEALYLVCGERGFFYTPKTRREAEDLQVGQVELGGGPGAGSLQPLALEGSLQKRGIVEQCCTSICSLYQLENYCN

B1: antibody 28-4 (antibody, V domains shown)
VH: EVQLVQSGGGLVQPGGSLGLSCAASGFTFSNYNMNWVRQAPGKGLEWLAYISGSSNTIFYADSVKGRFTISRDNAKNSLHLQMSSLRDEDTAVYYCARDRGCNSNICYVVGYYFYGMDDWGQGTTVTVSS
VL: DIQMTQSPSSVSASVGDRVTITCRASQAITSYLVWYQQKPGKAPKLLIYDAARLESGVPSRFSGSGSGTHFTLTINNLQPEDFATYYCQQADSFPLTFGQGTRLEIK
With B1, in experiment [1], the binding result is recorded as “no binding”.

B2: 3I14 (antibody, V domains shown)
VH: QVQLLESGGGVVQPGRSLRLSCAASGFTFSNYGMHWVRQAPGKGLEWVAIISFDGSKKYYANSVKGRSTISRDNSKNTLSLQMNSLGPEDTALYYCAKLPSPYYFDSRFVWVAASAFHFWGQGILVTVSS
VL: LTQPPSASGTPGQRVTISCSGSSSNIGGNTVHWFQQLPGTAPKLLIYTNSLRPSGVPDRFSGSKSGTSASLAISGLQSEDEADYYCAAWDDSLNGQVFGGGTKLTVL
notes: source: Expi CHO cells, cotransfected, purified (Protein A Agarose)
As for B2, the binding result in experiment [2] is reported as “binds”.

B3: antibody 28-2 (antibody, V domains shown)
VH: EVQLVESGGGLVQPGGSLRLSCAASGFTFSTYSMNWVRQAPGKGLEWLSYISTSSSTIDYADSVKGRFTISRDNAKNSLYLQMNSLRDEDTAVYYCARDRGCSSTNCYVVGYYFYGMDVWGQGTTVTVSS
VL: DIQMIQSPSSVSASVGDRVTITCRASQGISSYLAWYQQKPGKAPKLLIYAASRLQSGVPSRFSGSGSGTDFTLTISGLQPEDFATYHCQQANSFPLTFGQGTRLEIK
For B3, in experiment [1], the binding result is “no binding”.

B4: antibody 28-6 (antibody, V domains shown)
VH: EVQLVQSGGGLAQPGGSLRLSCTASGFAFSSYGMNWVRQTPGKGLEWVSYISSGSTIIDYAGSVKGRFTISRDNAKNSLHLEMNSLRDEDTAVYYCARDRGCSSTTCYVIGYYYYGMDVWGQGTTVTVSS
VL: DIQMTQSPSSVSASVGDRVTITCRASQGINRRLVWYQQKPGKVPKLLIYDASSLQCGVPSRFSGSGSGTDFTITISSLQPEDFATYYCQQADSFPLTFGQGTRLEIK
On to B4, for which the binding result in experiment [1] was “no binding”.
